Test results taken from PMC2138200.
“And” between values parts separate entries of the source, which are not always exact repeats. Identical values can stand only once.

Molecular target: p53, Gal4 fusion of the two-hybrid control plasmid pM53
Test: two-hybrid

## SV-40 large T, VP16 fusion of the two-hybrid control plasmid pV-T (natural protein)
  CAT protein of the two-hybrid reporter: 186 pg and 251 pg
